Results published in patent US20120301899A1 (AGENCY FOR SCIENCE TECHNOLOGY AND RESEARCH, published 2012).

Target: T1, podocalyxin-like protein-1 (PODXL) (human, UniProt O00592 23-558)
T1 construct: whole, on cells; In the flow cytometry experiments the target is undifferentiated hESC; also called PCLPI; Podocalyxin-like protein 1 precursor
T1 sequence (looked up): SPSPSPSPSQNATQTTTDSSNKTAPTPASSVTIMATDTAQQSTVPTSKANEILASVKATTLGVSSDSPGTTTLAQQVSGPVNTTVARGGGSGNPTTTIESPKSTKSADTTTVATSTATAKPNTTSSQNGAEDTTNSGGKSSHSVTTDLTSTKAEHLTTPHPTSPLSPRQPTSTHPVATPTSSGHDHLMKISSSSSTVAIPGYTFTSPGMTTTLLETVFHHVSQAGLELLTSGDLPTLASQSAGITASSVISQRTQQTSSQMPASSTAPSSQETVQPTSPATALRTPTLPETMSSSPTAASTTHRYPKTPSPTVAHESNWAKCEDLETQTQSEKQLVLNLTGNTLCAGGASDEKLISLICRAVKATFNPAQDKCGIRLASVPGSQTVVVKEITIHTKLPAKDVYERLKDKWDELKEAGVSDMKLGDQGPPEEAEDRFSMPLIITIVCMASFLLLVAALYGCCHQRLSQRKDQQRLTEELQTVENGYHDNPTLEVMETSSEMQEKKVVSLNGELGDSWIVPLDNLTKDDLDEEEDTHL
Experiment: kinetics of binding to PODXL on the surface of hESCs; method not stated

B1: monoclonal antibody mAb 84 (antibody, V domains shown)
VH: QVQLQQSGGGLVQPGGSMKLSCVASGFTFSNYWMNWVRQSPEKGLEWVAEIRLKSNNYATHYAESVKGRFTISRDDSKSSVYLQMNNLRAEDTGIYYCTGERAWGQGTTVTVSS
VL: DIELTQSPAIMSASPGEKVTMTCSASSSVNYMYWYQQKPGSSPRLLIYDTSNLASGVPVRFSGSGSGTSYSLTISRMEAEDAATYYCQQWSSYPYTFGGGTKLEIKR
Kd: 40 nM | koff: 0.0029 s⁻¹ | kon: 71000 M⁻¹ s⁻¹
